Measurements: patent US20230045284

Tests used:
[1] = target: Recombinant 6xHis-tagged KRas (rKRas; KRas4B NP_004976.2), P01116
[2] = target: Recombinant 6xHis-tagged HRas (rHRas; NP_001123914.1), P01112
[3] = target: T1, GST-Rit2, Q99578
T1 chain: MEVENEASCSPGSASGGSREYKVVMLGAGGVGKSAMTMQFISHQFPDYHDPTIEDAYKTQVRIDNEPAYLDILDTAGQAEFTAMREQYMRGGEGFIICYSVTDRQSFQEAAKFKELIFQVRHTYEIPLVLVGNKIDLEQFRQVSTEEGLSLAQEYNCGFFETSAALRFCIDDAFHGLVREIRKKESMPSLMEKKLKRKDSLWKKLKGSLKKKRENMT

[4] = target: GST-HRas (rGST-HRas), P01112
[5] = target: Recombinant 6xHis-tagged NRas (rNRas; NP_002515.1), P01111
Recombinant 6xHis-tagged NRas (rNRas; NP_002515.1), P01111, sequence (P01111 whole entry): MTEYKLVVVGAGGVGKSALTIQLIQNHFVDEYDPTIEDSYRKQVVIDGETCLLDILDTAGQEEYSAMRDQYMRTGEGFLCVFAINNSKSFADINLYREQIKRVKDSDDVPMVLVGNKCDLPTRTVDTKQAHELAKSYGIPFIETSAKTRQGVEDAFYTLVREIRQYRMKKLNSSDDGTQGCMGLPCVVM

GST-HRas (rGST-HRas), P01112, sequence (P01112 whole entry, looked up): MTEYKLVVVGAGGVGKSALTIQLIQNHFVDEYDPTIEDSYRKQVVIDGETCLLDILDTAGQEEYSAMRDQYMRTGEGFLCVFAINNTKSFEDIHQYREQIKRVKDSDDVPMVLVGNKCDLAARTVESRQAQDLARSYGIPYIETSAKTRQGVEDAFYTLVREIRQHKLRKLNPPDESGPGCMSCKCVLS
Recombinant 6xHis-tagged HRas (rHRas; NP_001123914.1), P01112, sequence (P01112 whole entry, looked up): as above

B1: Recombinant 6xHis-tagged DUF5Pa (P. asymbiotica ATCC43949 hypothetical protein, P41-V532) (protein)
chain: MVFEHDKTVERKRKPSIQLGNDKEKSSEQALELPQSKQNNPLLHDLITSNNLRKEAAVFAKQIGPSYQGILDGLEHLHNLSGNEQLTAGFELHRRITRYLEEHPDSKRNAALRRTQTQLGDLMFTGTLQEVRHPLLEMAETRPAMASQIYQIARDEAKGNTPGLTDLMVRWVKEDPYLAAKSGYQGKIPNDLPFEPKFHVELGDQFGEFKTWLDTAQNQGLLTHTRLDEQNKQVHLGYSYNELLDMTGGVESVKMAVYFLKEAAKQAEPGSAKSQEAILLNRFANPAYLTQLEQGRLAQMEAIYHSSHNTDVAAWDQQFSPDALTQFNHQLDNSVDLNSQLSFLLKDRQGLLIGESHGSDLNGLRFVEEQMDALKAHGVTVIGLEHLRSDLAQPLIDKFLTSENEPMPAELAAMLKTKHLSVNLFEQARSKQMKIIALDNNSTTRPAEGEHSLMYRAGAANNVAVERLQQLPAEEKFVAIYGNAHLQSHEGIDHFLPGITHRLGLPALKVDENNRFTAQADNINQRKCYDDVVEVSRIQLTS
[1]
  in vitro cleavage, SDS-PAGE: shown to also cleave rKRas

B2: Recombinant 6xHis-tagged DUF5Ah (A. hydrophila ATCC7966 MARTXAh P3069-V3570) (protein)
chain: PGKTGVTERTARLFADVYSPDELKKAAQVFAKPIGESYQQILDQLATLHGASGQAKVEAALRLNNLIDDYLVKHEGSGRNPALSKLQSQLHGNLYRGELASLQAEVTALAKTRPDLAAIVIGKAAEEAQGQHPGLTQMVLRWAAQDPYLAAKAGYQGVVPADLPFDARFHIALGEQHDDLKKWLTEAQGKGLLNRAVLDDTRKVLHLGYSYQELQDMTGEQSAQMAVYFIKEAAKQAAPGSELSAELIMLDKFGDRRYLGELESRRIAQIENIYHSSKQTDVAAWDARYGGDALRTLNNQLDGESTLAGQLSRLLDNRNGLLIGETHGSDVNGLRFVNEQMDALKIQGVTVIALEHLRSELAQPLIDRYLAGGEMSPELTSMLKNKHLEPSLFERARERGMRIVALDDGSTARPAIAGTEHGLMYRAGAANNVAVEVLGKLPAGEKFVAIYGSAHLGSHKGIEGFVPGITHRLGLPALKVDADNRFHLQADDVSQRVEYADVGRKWTPVAAL
[1]
  in vitro cleavage, SDS-PAGE: The recombinant protein rDUF5Ah was able to cleave rKRas in the in vitro reaction

B3: Recombinant 6xHis-tagged DUF5Vv (rDUF5Vv; V. vulnificus CMCP6 MARTXVv Q3596-L4089) (protein)
chain: QELKERAKVFAKPIGASYQGILDQLDLVHQAKGRDQIAASFELNKKINDYIAEHPTSGRNQALTQLKEQVTSALFIGKMQVAQAGIDAIAQTRPELAARIFMVAIEEANGKHVGLTDMMVRWANEDPYLAPKHGYKGETPSDLGFDAKYHVDLGEHYADFKQWLETSQSNGLLSKATLDESTKTVHLGYSYQELQDLTGAESVQMAFYFLKEAAKKADPISGDSAEMILLKKFADQSYLSQLDSDRMDQIEGIYRSSHETDIDAWDRRYSGTGYDELTNKLASATGVDEQLAVLLDDRKGLLIGEVHGSDVNGLRFVNEQMDALKKQGVTVIGLEHLRSDLAQPLIDRYLATGVMSSELSAMLKTKHLDVTLFENARANGMRIVALDANSSARPNVQGTEHGLMYRAGAANNIAVEVLQNLPDGEKFVAIYGKAHLQSHKGIEGFVPGITHRLDLPALKVSDSNQFTVEQDDVSLRVVYDDVANKPKITFKGSL
[2]
  in vitro endopeptidase assay, SDS-PAGE: showed the cleavage of rKRas, rHRas, and rNRas by rDUF5Vv
[3]
  in-vitro cleavage of GST-fusion GTPases: Rit2 was not cleaved at all
[1]
  in vitro cleavage with varying concentrations of EDTA, equimolar 10 µM, 30 minutes at 37 C: Cleavage was still observed
  in vitro cleavage with varying concentrations of phenanthroline, equimolar 10 µM, 30 minutes at 37 C: Cleavage was still observed
  in vitro endopeptidase assay, SDS-PAGE: showed the cleavage of rKRas, rHRas, and rNRas by rDUF5Vv
  in-vitro cleavage reaction of purified proteins: rKRas was efficiently cleaved within 10 min in a concentration-dependent manner
[4]
  in vitro cleavage of rGST-GTPase, SDS-PAGE: DUF5Vv could cleave only HRas
[5]
  in vitro endopeptidase assay, SDS-PAGE: The cleavage of rNRas was less efficient compared to rKRas and rHRas
